According to article PMC11931385, “Structural and functional analysis of cancer-associated missense variants in the retinoblastoma protein pocket domain” (The Journal of Biological Chemistry, 2025):
No end group written: not given here. TMR = tetramethyl rhodamine dye

Columns and labels:
Assay in all cases: fluorescence polarisation; 25 °C; unlabeled Rb^P titrated against 1.5 nM TMR-E2F1^TD or 7.5 nM TMR-E7^LxCxE; 25 mM Tris pH 8.0, 200 mM NaCl, 1 mM DTT, 0.1% Tween-20; 2 min incubation; quadratic fit; apparent Kd for the variants, Kd for WT
Settings in all cases: both partners purified
Rb^P S612P = biological target: T1, Rb^P S612P (human, UniProt P06400 380-788, S612P)
T1 construct: also called variant 39
T1 sequence (looked up): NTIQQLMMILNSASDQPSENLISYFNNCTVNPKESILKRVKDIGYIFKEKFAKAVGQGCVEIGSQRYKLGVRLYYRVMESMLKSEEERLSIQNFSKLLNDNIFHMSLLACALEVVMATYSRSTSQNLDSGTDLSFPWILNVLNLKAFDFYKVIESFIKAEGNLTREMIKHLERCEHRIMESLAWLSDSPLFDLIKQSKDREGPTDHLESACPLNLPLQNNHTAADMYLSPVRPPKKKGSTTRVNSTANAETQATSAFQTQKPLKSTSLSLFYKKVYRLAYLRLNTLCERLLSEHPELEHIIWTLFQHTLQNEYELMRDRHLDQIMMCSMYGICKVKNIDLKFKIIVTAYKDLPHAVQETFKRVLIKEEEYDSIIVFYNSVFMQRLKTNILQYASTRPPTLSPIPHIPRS

Rb^P T664A = biological target: T2, Rb^P T664A (human, UniProt P06400 380-788, T664A)
T2 construct: also called variant 50
T2 sequence (looked up): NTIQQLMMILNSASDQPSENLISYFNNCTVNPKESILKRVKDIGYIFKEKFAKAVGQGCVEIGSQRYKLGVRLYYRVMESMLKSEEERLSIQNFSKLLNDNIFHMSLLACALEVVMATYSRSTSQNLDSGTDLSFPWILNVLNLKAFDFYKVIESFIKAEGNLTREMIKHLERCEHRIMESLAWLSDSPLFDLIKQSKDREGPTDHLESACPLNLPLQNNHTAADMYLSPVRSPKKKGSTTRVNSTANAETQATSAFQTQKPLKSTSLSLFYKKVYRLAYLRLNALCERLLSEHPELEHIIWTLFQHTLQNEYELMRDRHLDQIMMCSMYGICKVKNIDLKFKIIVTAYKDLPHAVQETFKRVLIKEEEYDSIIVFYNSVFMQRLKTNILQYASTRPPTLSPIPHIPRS

Rb^P S671F = biological target: T3, Rb^P S671F (human, UniProt P06400 380-788, S671F)
T3 construct: also called variant 53
T3 sequence (looked up): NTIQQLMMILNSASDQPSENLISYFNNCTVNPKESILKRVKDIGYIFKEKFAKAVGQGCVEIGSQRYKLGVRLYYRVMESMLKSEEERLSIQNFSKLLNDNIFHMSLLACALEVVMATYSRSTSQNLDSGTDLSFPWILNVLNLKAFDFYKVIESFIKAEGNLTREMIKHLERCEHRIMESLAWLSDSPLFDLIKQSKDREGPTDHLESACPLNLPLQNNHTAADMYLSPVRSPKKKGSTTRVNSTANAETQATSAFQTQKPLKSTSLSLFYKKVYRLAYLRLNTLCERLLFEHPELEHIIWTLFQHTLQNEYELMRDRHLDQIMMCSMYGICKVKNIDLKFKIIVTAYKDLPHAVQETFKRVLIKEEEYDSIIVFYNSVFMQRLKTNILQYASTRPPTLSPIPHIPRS

Rb^P R451C = biological target: T4, Rb^P R451C (human, UniProt P06400 380-788, R451C)
T4 construct: also called variant 5
T4 sequence (looked up): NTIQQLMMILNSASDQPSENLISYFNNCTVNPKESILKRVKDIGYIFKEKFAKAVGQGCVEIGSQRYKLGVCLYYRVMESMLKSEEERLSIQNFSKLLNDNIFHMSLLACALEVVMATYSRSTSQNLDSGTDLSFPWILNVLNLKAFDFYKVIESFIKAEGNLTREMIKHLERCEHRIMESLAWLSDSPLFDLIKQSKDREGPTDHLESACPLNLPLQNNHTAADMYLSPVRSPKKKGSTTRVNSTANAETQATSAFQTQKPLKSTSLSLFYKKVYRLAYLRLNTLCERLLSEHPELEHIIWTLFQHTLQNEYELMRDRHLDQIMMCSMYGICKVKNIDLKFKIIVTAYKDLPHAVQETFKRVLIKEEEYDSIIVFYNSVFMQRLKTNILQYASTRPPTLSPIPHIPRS

Rb^P T738I = biological target: T5, Rb^P T738I (human, UniProt P06400 380-788, T738I)
T5 construct: also called variant 67
T5 sequence (looked up): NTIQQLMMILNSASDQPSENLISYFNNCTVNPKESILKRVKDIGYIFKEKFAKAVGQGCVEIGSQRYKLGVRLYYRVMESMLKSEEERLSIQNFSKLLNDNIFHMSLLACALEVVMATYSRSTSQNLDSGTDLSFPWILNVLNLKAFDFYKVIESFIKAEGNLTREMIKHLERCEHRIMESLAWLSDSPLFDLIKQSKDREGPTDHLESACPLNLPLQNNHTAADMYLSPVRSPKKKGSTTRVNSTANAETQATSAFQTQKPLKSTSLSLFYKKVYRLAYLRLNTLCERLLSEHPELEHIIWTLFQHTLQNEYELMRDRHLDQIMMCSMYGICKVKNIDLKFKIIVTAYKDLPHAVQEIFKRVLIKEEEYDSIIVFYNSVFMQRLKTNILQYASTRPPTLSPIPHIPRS

B1: TMR-E2F1^TD, peptide of the E2F1 transactivation domain (peptide)
peptide: {TMR}-GEGIRDLFDCDFGDLTPLD
notes: also called E2F^TD; source: synthetic peptide, bought: GenScript
Rb^P S612P
  Kd: 32 nM
Rb^P T664A
  Kd: 15 nM
Rb^P S671F
  Kd: 24 nM
Rb^P R451C
  Kd: 33 nM
Rb^P T738I
  Kd: 60 nM

B2: TMR-E7^LxCxE, LxCxE peptide of the E7 oncoprotein from HPV (peptide)
peptide: DLYCYEQLN
modifications: also: TMR label, position not given here
notes: source: synthetic peptide, bought: GenScript
Rb^P S612P
  Kd: 7 nM
Rb^P T664A
  Kd: 8 nM
Rb^P S671F
  Kd: 9 nM
Rb^P R451C
  Kd: 7 nM
Rb^P T738I
  Kd: 18 nM
